Results: patent US6399759

Biological target: T1, Soli E2 (Solenopsis invicta)
T1 sequence: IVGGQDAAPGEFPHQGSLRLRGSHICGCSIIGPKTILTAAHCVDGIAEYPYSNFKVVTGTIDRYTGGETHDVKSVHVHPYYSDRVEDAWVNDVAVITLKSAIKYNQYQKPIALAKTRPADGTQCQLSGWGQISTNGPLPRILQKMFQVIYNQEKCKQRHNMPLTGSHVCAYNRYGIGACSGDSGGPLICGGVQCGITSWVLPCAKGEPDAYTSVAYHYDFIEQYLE
Assay: cell-based or functional assay

Sequence of α-1-Proteinase Inhibitor (P01009 25-418 limits assumed): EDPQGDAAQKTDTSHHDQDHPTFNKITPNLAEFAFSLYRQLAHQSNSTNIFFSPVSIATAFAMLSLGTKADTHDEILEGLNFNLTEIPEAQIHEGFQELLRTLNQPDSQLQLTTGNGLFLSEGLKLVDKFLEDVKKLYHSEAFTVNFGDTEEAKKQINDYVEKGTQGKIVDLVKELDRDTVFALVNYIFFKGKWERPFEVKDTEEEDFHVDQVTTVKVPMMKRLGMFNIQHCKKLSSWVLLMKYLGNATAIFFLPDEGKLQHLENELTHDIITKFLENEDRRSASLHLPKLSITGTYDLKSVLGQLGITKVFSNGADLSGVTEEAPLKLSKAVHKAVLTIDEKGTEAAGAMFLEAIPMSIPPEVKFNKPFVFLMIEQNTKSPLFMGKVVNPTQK

| IC50 | Max Inhibition Rate/IC50 | Substance |
| --- | --- | --- |
| 7.68 nM |  | Canadian Goose OM |
|  | < 0.1 | Z-Gly-Leu-Phe-CK (peptide) |
|  | 27.2 | Z-Ala-Val-^p(OPh)2 (peptide) |
| 27.3 nM |  | Canadian Goose OM Domain III (from UniProt P68393 1-54) |
|  | 666 | Boc-Ala-Pro-Val-^p(OPh)2 (peptide) |
| 1.89 nM |  | Eglin C (from UniProt P01051 1-70) |
|  | < 0.1 | Z-Phe-Phe-^p(OPh)2 (peptide) |
|  | 735 | Boc-Val-Pro Val-^p(OPh)2 (peptide) |
| 10.1 nM |  | Potato Inhibitor II |
| 6.03 nM |  | Domestic Goose OM |
|  | < 0.1 | Z-Phe-Leu-Phe-^p(OPh)2 (peptide) |
|  | < 0.1 | Z-Leu-Phe-^p(OPh)2 (peptide) |
| 5.58 nM |  | Domestic Goose OM Domain III (from UniProt P68389 1-54) |
|  | 36.6 | Z-Pro-Val-^p(OPh)2 (peptide) |
|  | 76.8 | Z-Val-Val-^p(OPh)2 (peptide) |
| 9.13 nM |  | Potato Inhibitor I |
| 0.604 nM |  | α-1-Proteinase Inhibitor (from UniProt P01009 25-418) |
